Measurements from patent US20220273711A1 (University of Washington, published 2022).

B1: Bim_Her2 (Her2 DARPin tagged with N-terminal Bim peptide) (designed binder)
chain: MGSHHHHHHGSGSENLYFQGSTDEIWIAQELRRIGDEFNAYYASGSGDLGKKLLEAARAGQDDEVRILMANGADVNAKDEYGLTPLYLATAHGHLEIVEVLLKNGADVNAVDAIGFTPLHLAAFIGHLEIAEVLLKHGADVNAQDKFGKTAFDISIGNGNEDLAEILQKLN
notes: also called Anti-Her2 DARPin with N-terminal fusion to Bim; Bim-DARPin
B2: Bim_EGFR (EGFR DARPin tagged with N-terminal Bim peptide) (designed binder)
chain: MGSHHHHHHGSGSENLYFQGSTDEIWIAQELRRIGDEFNAYYASGSGDLGKKLLEAARAGQDDEVRILMANGADVNADDTWGWTPLHLAAYQGHLEIVEVLLKNGADVNAYDYIGWTPLHLAADGHLEIVEVLLKNGADVNASDYIGDTPLHLAAHNGHLEIVEVLLKHGADVNAQDKFGKTAFDISIDNGNEDLAEILQKLN
notes: also called anti-EGFR DARPin with N-terminal fusion to Bim; Bim-DARPin

Legend:
[1] = target: T1, Her2-eGFP (hsHER2_ecd_tm-eGFP) (human (hs)); experiment: flow cytometry; Bim-DARPin pre-complexed with Bcl2-AF594, 3-fold dilutions from 300 nM to 0.4 nM, mixed K562 cells expressing Her2-eGFP, EGFR-iRFP, both or neither
T1 construct: Expressed on K562 cells by lentiviral transduction; also called Her2-eGFP on K562 cells
Protocol: (§1) FIG. 16. DARPin binder affinity measured by flow cytometry. Anti-Her2 or anti-EGFR DARPins with N-terminal fusions to Bim were pre-complexed with Bcl2-AF594 and serially diluted 3-fold from 300 nM down to 0.4 nM. This dilution series was used to label a mixed population of K562 cells expressing Her2-eGFP, EGFR-iRFP, both, or neither for one hour at room temperature in a 50 μl incubation volume. The cells were then washed in PBS supplemented with 0.1% bovine serum albumin and analyzed on an LSRII flow cytometer.

[2] = target: T2, EGFR-iRFP (hsEGFR_ecd_tm-iRFP) (human (hs)); experiment: as above
T2 construct: Expressed on K562 cells by lentiviral transduction; also called EGFR-iRFP on K562 cells
T2 sequence (chain, as listed by the source limits assumed): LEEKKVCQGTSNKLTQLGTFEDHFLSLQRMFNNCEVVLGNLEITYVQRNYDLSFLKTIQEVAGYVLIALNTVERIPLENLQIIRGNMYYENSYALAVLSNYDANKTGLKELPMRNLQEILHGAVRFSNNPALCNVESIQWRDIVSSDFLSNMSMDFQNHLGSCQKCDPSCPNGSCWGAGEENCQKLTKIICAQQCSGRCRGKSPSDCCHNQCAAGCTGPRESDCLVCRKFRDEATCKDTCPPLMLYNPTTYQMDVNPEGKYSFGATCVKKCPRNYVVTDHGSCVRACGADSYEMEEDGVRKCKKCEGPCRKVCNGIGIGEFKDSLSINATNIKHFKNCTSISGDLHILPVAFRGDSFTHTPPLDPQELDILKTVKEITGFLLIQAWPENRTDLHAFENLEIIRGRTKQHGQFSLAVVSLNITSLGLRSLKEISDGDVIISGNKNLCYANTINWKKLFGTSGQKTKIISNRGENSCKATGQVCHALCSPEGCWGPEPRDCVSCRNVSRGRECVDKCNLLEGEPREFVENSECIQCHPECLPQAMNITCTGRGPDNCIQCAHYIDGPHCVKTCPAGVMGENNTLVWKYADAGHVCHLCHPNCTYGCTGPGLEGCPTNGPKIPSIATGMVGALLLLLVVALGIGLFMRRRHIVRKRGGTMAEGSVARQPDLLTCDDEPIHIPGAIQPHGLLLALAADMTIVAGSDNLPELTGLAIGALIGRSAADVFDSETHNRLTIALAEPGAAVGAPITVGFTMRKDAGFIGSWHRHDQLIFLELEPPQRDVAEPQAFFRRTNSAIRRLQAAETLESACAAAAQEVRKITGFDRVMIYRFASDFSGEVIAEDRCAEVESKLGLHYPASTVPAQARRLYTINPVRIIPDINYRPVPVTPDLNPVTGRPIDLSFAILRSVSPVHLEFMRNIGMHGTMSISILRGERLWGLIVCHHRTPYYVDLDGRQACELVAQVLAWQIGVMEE
Protocol: as §1

Binder | Kd [1] [nM] | Kd [2] [nM]
B1 | ~10 | 
B2 |  | ~10
